These results are taken from PMC10397247.

One assay addresses T1, 4H3865-AA.
T1 chain: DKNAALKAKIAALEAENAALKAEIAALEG
Put plainly: two-hybrid library CCmax.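 Further: natural log of median RNA to DNA barcode read ratio; higher means stronger binding.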

The target of a further assay is T2, 4H458-AA.
T2 chain: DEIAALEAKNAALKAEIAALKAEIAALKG
Put plainly: two-hybrid library CCmax.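 Further: natural log of median RNA to DNA barcode read ratio; higher means stronger binding.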 The conditions noted are these: mean of both orientations.

The target of the next assay is T3, 4H485-AA.
T3 chain: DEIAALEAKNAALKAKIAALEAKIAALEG
Put plainly: two-hybrid library CCmax.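 Further: natural log of median RNA to DNA barcode read ratio; higher means stronger binding.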 As to conditions: mean of both orientations.

The next assay addresses T4, 4H536-AA.
T4 chain: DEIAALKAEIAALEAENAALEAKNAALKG
Put plainly: two-hybrid library CCmax.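 Further: natural log of median RNA to DNA barcode read ratio; higher means stronger binding.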 As to conditions: mean of both orientations.

The target of a further assay is T5, 4H570-AA.
T5 chain: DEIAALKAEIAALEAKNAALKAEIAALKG
The assay can be described thus: two-hybrid library CCmax. The conditions noted are these: mean of both orientations.

Another assay concerns the target T6, 4H629-AA.
T6 chain: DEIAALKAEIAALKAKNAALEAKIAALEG
Put plainly: two-hybrid library CCmax. As to conditions: mean of both orientations.

A further assay deals with T7, 4H697-AA.
T7 chain: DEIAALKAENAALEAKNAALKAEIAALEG
Put plainly: two-hybrid library CCmax.

In another assay the target is T8, 4H710-AA.
T8 chain: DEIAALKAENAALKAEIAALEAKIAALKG
Put plainly: two-hybrid library CCmax. The conditions noted are these: mean of both orientations.

The target of the next assay is T9, 4H745-AA.
T9 chain: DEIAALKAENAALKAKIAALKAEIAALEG
The assay can be described thus: two-hybrid library CCmax. As to conditions: mean of both orientations.

The next assay has as its target T10, 4H797-AA.
T10 chain: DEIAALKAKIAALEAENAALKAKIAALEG
The assay can be described thus: two-hybrid library CCmax. As to conditions: mean of both orientations.

In a further assay the target is T11, 4H850-AA.
T11 chain: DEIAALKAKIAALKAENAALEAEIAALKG
Put plainly: two-hybrid library CCmax. As to conditions: mean of both orientations.

The next assay deals with T12, 4H891-AA.
T12 chain: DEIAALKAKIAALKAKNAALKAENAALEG
Put plainly: two-hybrid library CCmax. The conditions noted are these: mean of both orientations.

For another assay, the target named is T13, 4H909-AA.
T13 chain: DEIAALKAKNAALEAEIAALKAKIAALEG
Put plainly: two-hybrid library CCmax. As to conditions: mean of both orientations.

For the next assay, the target named is T14, 4H930-AA.
T14 chain: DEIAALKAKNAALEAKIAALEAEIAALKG
The assay can be described thus: two-hybrid library CCmax. As to conditions: mean of both orientations.

A further assay deals with T15, 4H94-AA.
T15 chain: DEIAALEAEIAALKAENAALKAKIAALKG
The assay can be described thus: two-hybrid library CCmax. As to conditions: mean of both orientations.

In another assay the target is T16, 4H982-AA.
T16 chain: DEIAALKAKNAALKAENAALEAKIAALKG
Put plainly: two-hybrid library CCmax. As to conditions: mean of both orientations.

A further assay has as its target T17, P5-AA-1HAA-R.
T17 chain: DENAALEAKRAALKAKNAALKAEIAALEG
Put plainly: two-hybrid library CCmax.

A further assay concerns the target T18, 4H112-bH.
T18 chain: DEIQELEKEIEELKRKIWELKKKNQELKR
Put plainly: two-hybrid library CCNG1.

The next assay addresses T19, 4H1158-bH.
T19 chain: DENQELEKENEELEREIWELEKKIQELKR
Put plainly: two-hybrid library CCNG1.

The target in a further assay is T20, 4H118-bH.
T20 chain: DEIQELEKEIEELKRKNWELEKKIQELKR
Put plainly: two-hybrid library CCNG1.

Another assay deals with T21, 4H170-bH.
T21 chain: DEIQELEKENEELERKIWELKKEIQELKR
Put plainly: two-hybrid library CCNG1.

The next assay concerns the target T22, 4H1831-bH.
T22 chain: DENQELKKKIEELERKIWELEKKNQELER
Put plainly: two-hybrid library CCNG1.

The target of another assay is T23, 4H2233-bH.
T23 chain: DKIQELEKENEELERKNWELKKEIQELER
Put plainly: two-hybrid library CCNG1.

In a further assay the target is T24, 4H2586-bH.
T24 chain: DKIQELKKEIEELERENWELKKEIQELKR
The assay can be described thus: two-hybrid library CCNG1.

The target of the next assay is T25, 4H2627-bH.
T25 chain: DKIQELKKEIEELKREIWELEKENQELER
The assay can be described thus: two-hybrid library CCNG1.

Another assay concerns the target T26, 4H2673-bH.
T26 chain: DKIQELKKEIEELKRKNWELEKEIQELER
The assay can be described thus: two-hybrid library CCNG1.

The target of a further assay is T27, 4H2702-bH.
T27 chain: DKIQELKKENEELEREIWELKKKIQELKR
Put plainly: two-hybrid library CCNG1.

In a further assay the target is T28, 4H3010-bH.
T28 chain: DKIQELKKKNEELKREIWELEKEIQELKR
Put plainly: two-hybrid library CCNG1.

A further assay addresses T29, 4H3112-bH.
T29 chain: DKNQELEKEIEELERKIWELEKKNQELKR
Put plainly: two-hybrid library CCNG1.

For the next assay, the target named is T30, 4H3427-bH.
T30 chain: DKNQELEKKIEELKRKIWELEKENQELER
Put plainly: two-hybrid library CCNG1.

A further assay addresses T31, 4H346-bH.
T31 chain: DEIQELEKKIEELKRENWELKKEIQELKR
The assay can be described thus: two-hybrid library CCNG1.

Another assay has as its target T32, 4H3926-bH.
T32 chain: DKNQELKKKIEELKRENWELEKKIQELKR
The assay can be described thus: two-hybrid library CCNG1.

Another assay concerns the target T33, 4H4073-bH.
T33 chain: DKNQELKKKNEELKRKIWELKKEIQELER
Put plainly: two-hybrid library CCNG1.

The next assay deals with T34, 4H457-bH.
T34 chain: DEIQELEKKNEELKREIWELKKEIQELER
The assay can be described thus: two-hybrid library CCNG1.

In another assay the target is T35, 4H575-bH.
T35 chain: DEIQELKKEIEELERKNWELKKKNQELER
The assay can be described thus: two-hybrid library CCNG1.

The next assay deals with T36, 4H683-bH.
T36 chain: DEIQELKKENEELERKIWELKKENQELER
Put plainly: two-hybrid library CCNG1.

Another assay concerns the target T37, 4H754-bH.
T37 chain: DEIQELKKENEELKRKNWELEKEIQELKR
Put plainly: two-hybrid library CCNG1.

The target in another assay is T38, 4H780-bH.
T38 chain: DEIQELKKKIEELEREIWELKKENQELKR
The assay can be described thus: two-hybrid library CCNG1.

For a further assay, the target named is T39, 4H797-bH.
T39 chain: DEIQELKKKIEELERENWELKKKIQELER
Put plainly: two-hybrid library CCNG1.

For a further assay, the target named is T40, 4H855-bH.
T40 chain: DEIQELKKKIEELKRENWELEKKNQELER
The assay can be described thus: two-hybrid library CCNG1.

The target of another assay is T41, 4H918-bH.
T41 chain: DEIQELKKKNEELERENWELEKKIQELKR
Put plainly: two-hybrid library CCNG1.

The next assay deals with T42, 4H953-bH.
T42 chain: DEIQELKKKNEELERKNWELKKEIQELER
The assay can be described thus: two-hybrid library CCNG1.

The target in a further assay is T43, 4H968-bH.
T43 chain: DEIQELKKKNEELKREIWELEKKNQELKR
The assay can be described thus: two-hybrid library CCNG1.

DKNAALKAKIAALEAENAALKAEIAALEG [4H3865-AA]: the interaction score with 4H3865-AA was 0.444; in the assay with 4H458-AA it was -1.15; with 4H485-AA it was -1.27; in the assay with 4H536-AA it was -0.909; with 4H570-AA, 0.484; with 4H629-AA, -1.62. In addition, the interaction score with 4H697-AA was -1.81; with 4H710-AA, -1.84; in the assay with 4H745-AA, -0.83; with 4H797-AA it was 1.12; with 4H850-AA it was 1.18; with 4H891-AA, -1.81. In addition, the interaction score with 4H909-AA is -1.04; with 4H930-AA it was -1.43; with 4H94-AA, 1.56; with 4H982-AA, -0.79; with P5-AA-1HAA-R, -0.395.

Regarding DEIQELEKEIEELKRKIWELKKKNQELKR [4H112-bH], the interaction score is 1.65 in the assay with 4H112-bH; 1.45 with 4H1158-bH; 0.444 with 4H118-bH; -0.736 with 4H170-bH; 0.143 in the assay with 4H1831-bH; -0.606 with 4H2233-bH. For the same molecule, the interaction score was 0.807 with 4H2586-bH; 1.4 in the assay with 4H2627-bH; 0.53 in the assay with 4H2673-bH; 0.179 with 4H2702-bH; 1.49 in the assay with 4H3010-bH; 1.27 in the assay with 4H3112-bH. Besides, the interaction score with 4H3427-bH was 1.48; in the assay with 4H346-bH, 0.154; with 4H3926-bH it was 0.23; in the assay with 4H4073-bH, 1.39; with 4H457-bH it was 1.45; in the assay with 4H575-bH it was -0.63. In addition, the interaction score was 0.914 with 4H683-bH; -0.515 with 4H754-bH; 0.211 in the assay with 4H780-bH; -0.295 in the assay with 4H797-bH; -0.0783 in the assay with 4H855-bH; -0.152 in the assay with 4H918-bH. The interaction score with 4H953-bH was -0.228; with 4H968-bH, 0.0767.
